The experiment concerns the target T1, Hdm2 210-304 (Homo sapiens, UniProt Q00987).
T1 construct: poly-His (thrombin-cleavable, from pET28a) (cleaved yes); made in house; host or cells: E. coli BL21 (DE3)
The experiment is described as follows: SPR binding of Arf library peptides to immobilized His-tagged Hdm2 210-304. Conditions: 15 amino acid library peptides, binding for 10 minutes. As to the method:
Binding studies were performed using a Biacore 3000 surface plasmon resonance (SPR) instrument (Biacore, Inc.). A Tetra-His™ Antibody (Qiagen, Inc.; Cat. #34670) was covalently attached to a carboxymethylated gold surface (C-1 chip; Biacore, Inc.). The carboxymethyl groups on the surface were activated with N-ethyl-N′-(3-dimethylaminopropyl) carbodiimide (EDC) and N-hydroxysuccinimide (NHS) and the antibody was attached at pH 7.4 in 20 mM sodium phosphate buffer, 150 mM NaCl (PBS). Reactive sites remaining on the surface were blocked by reaction with ethanolamine. […] Binding was measured by flowing the non-His-tagged analyte through the reference and ligand-containing flow cells in sequence. […] Changes in the SPR response due to solvent differences and the injection process were monitored by injection of HBS-N buffer alone. […]
Two libraries of peptides 15 amino acids in length were synthesized based on the sequence of exon 1β of mouse p19^Arf and the entire sequence of human p14^Arf. […] The ability of these peptides to bind Hdm2 fragments was determined using the surface plasmon resonance (SPR) technique with a Biacore 3000 instrument. […] Relative binding affinity was judged on the basis of the maximal SPR signal detected after binding for 10 minutes.

Where no end group is shown, it is not given here.

T1 sequence (Q00987 210-304): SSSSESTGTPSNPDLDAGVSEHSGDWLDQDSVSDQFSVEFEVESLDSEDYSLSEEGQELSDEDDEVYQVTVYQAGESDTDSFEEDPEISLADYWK

“mouse p19^Arf residues 31-45: 15 amino acid mouse p19^Arf library peptide spanning residues 31-45, contains the RRPR motif (RRPRTASCALAFVNM; UniProt Q64364 31-45, looked up, fragment)”: the “binding to Hdm2 210-304 (maximal SPR signal)” value is “bind”.

For “human Arf residues 86-100: 15 amino acid human p14^Arf library peptide spanning residues 86-100, contains the NoLS RRPR (LRRPRHSHPTRARRC; not fully specified (N-terminus, C-terminus); UniProt Q8N726 86-100, looked up, fragment)”, the “binding to Hdm2 210-304 (maximal SPR signal)” value is “binds”.
